{"source": "the DeepSol protein solubility set"}
{"experiment": "soluble on expression in E. coli; label from the status in PepcDB or PDB records"}
{"sequence": "MGSDKIHHHHHHMNADTPLQLLGGLTAAEFLRDYWQRKPLLVRQAIPDFESPLSADELAGLSLEESVESRIVLEHGKTPWEMRRGPFQEEDYQHLPEQDWTLLVQAVDQFVPEVAQLLEQFRFLPSWRIDDVMISYAAPGGGVGPHFDNYDVFLLQGHGRRRWKVGQMCSSDSPLREHADLRILADFEQSDEWVLEPGDMLYLPPRLAHYGIAEDECMTYSIGFRAPSAAEVLTHFTDFLGQFLSDEERYTDAGLQPVGDDPHQIQRDALERLQGLIQEHMSDERLLLTWFGQFMTEPRYPELVAGEEIPEEELFGALEDGALLVRNPSARLAWSEIDIGLVLFASGQSVLLPGQLKELLKLVCSADALHLENLGQWLADDDARKLLAELVKQGSLEFADE", "soluble on expression in E. coli": "not soluble"}
{"sequence": "MSLIPKFRAWDTYEKEMLENVTPLFDDSNSMIAIITDFQIKGSPGTSEIEIGSYDTTFNWDEFPYVIMQSTGLKDKNGVEIFEGDILVYDAPKKYAHRRSMHEIAYADGRFFWEFLDLVFCQSNILYRDGYLVIGNIHENPELLEGNEGHHHHHH", "soluble on expression in E. coli": "soluble"}
{"sequence": "MEYKKILIRLLIAFAVLFSADFTYQSVEQTHQSHAAVNYYSKNQCTWWAFKRRAQVGKPVSNRWGNAKNWYYNARKSKYATGRTPRKFAVMQSTAGYYGHVAVVEQVYKNGSIKVSEYNFYRPLKYNTRVLSKKAARNFNYIYLEHHHHHH", "soluble on expression in E. coli": "not soluble"}
{"sequence": "NNTPVTNKLKAYGDANFNFTNNSIADAEKQVQEAYKGLLNLNEKNASDKLLVEDNTAATVGNLRKLGWVLSSKNGTRNEKSQQVKHADEVLFEGKGGVQVTSTSENGKHTITFALA", "soluble on expression in E. coli": "soluble"}
{"sequence": "MVQAFEPYIALNSHVRKPVIHISLNPSPKDILSKEQMTVLAQEFMEKFGYGNQPYIVWLHEDIDRKHMHIISVRINEKGEKIDHNREAIRAQNICRDMEVKYGLHSTLGEHSERELLSLQKVDYPKGDVKAQVKHTARTLLECYNCHSLAEYNTLLNLYNVTVYEVRGSVDGKEYYGIMYGALDDDGQQAGTPFKSSKFGKVFGYEALQKKFAATAEKVLEHHHHHH", "soluble on expression in E. coli": "not soluble"}
{"sequence": "MSEENRVGSKIRQLREARDMTVEELAEASQSSSELIQQLENGALVPSLTPLLKIARALGVRLGTFLDDMPQSGPVLVRSGLSENVVRFSGKTERPKKSALEFYSLASDKADRHMEPFIIDIHPSPEESHTLSSHEGEEFIYVLSGEIEIFYGKDVHRLSEGDSIYYDSIVPHDVHAAGKEDARIMAVVYAPL", "soluble on expression in E. coli": "not soluble"}
{"sequence": "MSLENRFDLRCYVVTGAGSVDEVVHTASAAARGGAGVVQVRSKPISPEAMRELASKVALEVARCSPTTRVLIDDHLHVASSLMREGLPIHGVHLGQDDMSVLEARELLGPEAIIGLTTGTLELVAAANELSDVLDYIGAGPFRKTPTKDSGRPPIGLAGYPPLVELSKVPIVAIGDVTPADVRALSATGVAGVAMVRAFSESDDPQQVAENVVANFELGRLSEGHHHHHH", "soluble on expression in E. coli": "soluble"}
{"sequence": "MAHHHHHHMTQSTIPLQSNIKISDRLEENSIDFCRFVGPFNRADEYAFTAPPWCQREGSENVPGSSLSTSVSAVFVLVSSPPNCGLVARFFCTKLLHYLLWCYKDAAFFLAGPSPRDFNVYRHEDDAAAWRKCMETCLAKSLEHVESARKRGTLTEPVVIVLADCESQAAYDTVHKMLGSMENLFVRHIWFGDSWRESNPVDCSYINVCLRQPAYRLTKCRGSSTCAKITSYLNSCLPTLHHIHLHEPLSGSPEETLRSGCPLFFTRHGQSEYNLEDRLGGDPDITPLGVDDALTLAEFFRDQVVRNPRLFATRDSIWDETEGFEVWCSQLKRTRHTAQPSADVLTNGNLKAFKMLNEIHAGVCEDMTANEVKEQYPSIQFFRHTDKAGFRYPNGESYHDLKRRLVPILYDLNATRKGILVVAHQAVLRAILSFFGGPPVEEAVHKPCAHRAVWCCTYNRLGEPRLSTITLRPRLQSSTEASTSVG", "soluble on expression in E. coli": "not soluble"}
{"sequence": "VSKRAAPFLYMITQRIEERGLPMELALLPVVESSFDAFAYSHGSAAGLWQFVPGTGKMMGLEQNYWYDGRRDVAASTDAALDYLVQLNERFDGNWEHAIAAYNSGGGRVSSAIRKNKKLGKPVDFFSLDLPKETSSYVPKLLALADVVANQEKYGIDIPSIPNKPVLT", "soluble on expression in E. coli": "not soluble"}
{"sequence": "MGSDKIHHHHHHMKDNYDAPESMLTGRVMYNGEALQLRGNEAVQLQLYQHGYAKHDPINVYVNQDGMYSANLFDGEYQMITKSGNGPWTSEGRDTINVTVAGNTVQDVEVTPYYLVRDAQMTLEGNKVNASFKVEKVAGGGIDRVFFMLSTTQFVNDAEHNVDRYDETDNLDAYDETGKLYTFATRDYTDNSMFQTALKRGTLFGRICIWPKGSDQGIYSKVIRLK", "soluble on expression in E. coli": "not soluble"}
